Source: patent US6403765B1, “Truncated Apaf-1 and methods of use thereof” (Thomas Jefferson University, priority 1998, dated 2002)

How the values were obtained:
T7-tagged Bcl-xL = target: T1, T7-tagged Bcl-xL (Homo sapiens, UniProt Q07817); assay: Co-immunoprecipitation of Flag-tagged Apaf-1 variants or procaspase-9 with T7-tagged Bcl-xL in 293 cells; assay type: binding; conditions: anti-Flag immunoprecipitation, anti-T7 blot, 36 hours, FIG. 16
T1 construct: expressed in transfected cells; host or cells: 293 cells
Description: In vivo interaction experiments between Apaf-1 variants and Bcl-xL were performed. To analyze the ability of Apaf-1 to interact with Bcl-xL, 293 cells were co-transfected with constructs encoding T7-tagged Bcl-xL and constructs encoding Flag-tagged Apaf-97 (FIG. 16, lane 1), Apaf-1 (FIG. 16, lane 2), Apaf-530 (FIG. 16, lane 3) Apaf-530ΔCARD (FIG. 16, lane 4), or procaspase-9 C287A (FIG. 16, lane 5). After 36 hours, extracts were prepared and immunoprecipitated with a monoclonal antibody to the Flag epitope. The immunoprecipitates (FIG. 16, upper panel) were analyzed by SDS-PAGE and immunoblotted with a horseradish peroxidase-conjugated T7 antibody. The corresponding cellular extracts were also analyzed by SDS-PAGE and immunoblotted with a horseradish peroxides-conjugated T7 antibody (FIG. 16, middle panel) or an anti-Flag antibody (FIG. 16, lower panel).

T7-tagged Apaf-530 = target: T2, T7-tagged Apaf-530 (Homo sapiens, UniProt O14727); assay: Co-immunoprecipitation of Flag-tagged Apaf-1 variants with T7-tagged Apaf-530 in 293 cells; assay type: binding; conditions: anti-Flag immunoprecipitation, anti-T7 blot, 36 hours, FIG. 11
T2 construct: expressed in transfected cells; host or cells: 293 cells
T2 sequence (O14727 1-530 isoform O14727-3): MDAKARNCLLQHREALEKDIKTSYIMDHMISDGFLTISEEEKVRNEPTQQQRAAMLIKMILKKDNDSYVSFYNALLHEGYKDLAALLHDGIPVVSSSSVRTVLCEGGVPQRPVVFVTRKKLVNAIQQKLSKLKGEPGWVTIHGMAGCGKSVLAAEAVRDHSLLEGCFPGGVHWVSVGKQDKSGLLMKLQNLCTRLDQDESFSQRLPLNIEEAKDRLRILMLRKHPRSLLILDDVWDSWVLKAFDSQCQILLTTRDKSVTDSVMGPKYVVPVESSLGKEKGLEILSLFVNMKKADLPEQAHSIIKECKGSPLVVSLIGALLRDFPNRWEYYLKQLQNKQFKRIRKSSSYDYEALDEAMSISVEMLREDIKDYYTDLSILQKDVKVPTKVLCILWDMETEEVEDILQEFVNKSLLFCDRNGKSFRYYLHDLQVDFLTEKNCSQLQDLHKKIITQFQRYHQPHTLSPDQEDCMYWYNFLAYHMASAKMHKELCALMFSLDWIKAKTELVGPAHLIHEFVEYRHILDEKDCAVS
Description: The ability of APAF-530 to oligomerize pro-caspase-9 was tested. Co-transfection experiments in 293 cells were performed with T7-tagged Apaf-530 and different Flag-tagged Apaf-1 variants, and cell lysates were prepared and immunoprecipitated with an anti-Flag antibody. The immunoprecipitates were analyzed by Western blotting with an anti-T7 antibody.
In FIG. 11, 293 cells were co-transfected with constructs encoding T7-tagged Apaf-530 and an empty vector (lane 1) or constructs encoding Flag-tagged Apaf-1 (lane 2), Flag-tagged Apaf-530 (lane 3), Flag-tagged Apaf-530ΔCARD (lane 4) or Flag-tagged Apaf-97 (lane 5). After 36 hours, extracts were prepared and immunoprecipitated with a monoclonal antibody to the Flag epitope. The immunoprecipitates (upper panel) were analyzed by SDS-PAGE and immunoblotted with a horseradish peroxides-conjugated T7 antibody. The corresponding cellular extracts were also analyzed by SDS-PAGE and immunoblotted with a horseradish peroxides-conjugated T7 antibody (middle panel) or an anti-Flag antibody (lower panel).

procaspase-3 = target: T3, procaspase-3 (Homo sapiens, UniProt P42574); assay: Processing of procaspase-3 by Apaf-530-bound caspase-9; assay type: biochemical; conditions: Apaf-530 with non-radiolabeled WT procaspase-9, FIG. 15
T3 construct: made in house; host or cells: coupled in vitro transcription/translation in rabbit reticulocyte lysate (TNT Kit, Promega)
T3 sequence (P42574 1-277): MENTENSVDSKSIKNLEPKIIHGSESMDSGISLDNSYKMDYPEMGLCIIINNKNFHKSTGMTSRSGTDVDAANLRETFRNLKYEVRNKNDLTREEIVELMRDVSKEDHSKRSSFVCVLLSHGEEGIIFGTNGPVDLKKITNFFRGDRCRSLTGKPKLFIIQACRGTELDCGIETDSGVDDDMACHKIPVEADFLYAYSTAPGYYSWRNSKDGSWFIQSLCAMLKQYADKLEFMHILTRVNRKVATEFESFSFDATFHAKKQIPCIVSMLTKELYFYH
Description: To achieve this, a chimeric procaspase-3 with an N-terminal caspase-9 prodomain was constructed. Caspase-9 prodomain in the chimera may allow recruitment of the chimeric procaspase-3 to the Apaf-530-caspase-9 complex. […] In FIG. 15, ^35S-labeled chimeric procaspase-3 with an N-terminal procaspase-9 prodomain (lanes 1-4) or WT procaspase-3 (lanes 5-8) were incubated with buffer or Apaf-530 in the presence or absence of a non-radiolabeled WT procaspase-9 and analyzed by SDS-PAGE followed by autoradiography.

T1 sequence (Q07817 whole entry): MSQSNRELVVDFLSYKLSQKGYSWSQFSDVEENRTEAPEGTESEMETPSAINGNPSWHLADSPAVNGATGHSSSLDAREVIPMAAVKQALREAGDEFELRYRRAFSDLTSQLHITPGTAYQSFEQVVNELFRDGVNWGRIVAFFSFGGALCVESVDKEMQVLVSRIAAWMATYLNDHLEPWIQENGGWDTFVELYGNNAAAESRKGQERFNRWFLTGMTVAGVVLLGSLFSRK

- co-immunoprecipitation with Bcl-xL (T7-tagged Bcl-xL): capable of immunoprecipitating Bcl-xL
- co-immunoprecipitation with T7-Apaf-530 (T7-tagged Apaf-530): co-immunoprecipitated
B1: Apaf-530: truncated Apaf-1 (residues 1-530) lacking its WD-40 repeats, recombinant (protein, UniProt O14727 1-530, looked up, fragment)
chain: MDAKARNCLLQHREALEKDIKTSYIMDHMISDGFLTISEEEKVRNEPTQQQRAAMLIKMILKKDNDSYVSFYNALLHEGYKDLAALLHDGIPVVSSSSGKDSVSGITSYVRTVLCEGGVPQRPVVFVTRKKLVNAIQQKLSKLKGEPGWVTIHGMAGCGKSVLAAEAVRDHSLLEGCFPGGVHWVSVGKQDKSGLLMKLQNLCTRLDQDESFSQRLPLNIEEAKDRLRILMLRKHPRSLLILDDVWDSWVLKAFDSQCQILLTTRDKSVTDSVMGPKYVVPVESSLGKEKGLEILSLFVNMKKADLPEQAHSIIKECKGSPLVVSLIGALLRDFPNRWEYYLKQLQNKQFKRIRKSSSYDYEALDEAMSISVEMLREDIKDYYTDLSILQKDVKVPTKVLCILWDMETEEVEDILQEFVNKSLLFCDRNGKSFRYYLHDLQVDFLTEKNCSQLQDLHKKIITQFQRYHQPHTLSPDQEDCMYWYNFLAYHMASAKMHKELCALMFSLDWIKAKTELVGPAHLIHEFVEYR
- processing of WT procaspase-3 (procaspase-3): no processing of procaspase-3 was observed
